Biological target: T1, human MICA002 on cells (human)
T1 chain: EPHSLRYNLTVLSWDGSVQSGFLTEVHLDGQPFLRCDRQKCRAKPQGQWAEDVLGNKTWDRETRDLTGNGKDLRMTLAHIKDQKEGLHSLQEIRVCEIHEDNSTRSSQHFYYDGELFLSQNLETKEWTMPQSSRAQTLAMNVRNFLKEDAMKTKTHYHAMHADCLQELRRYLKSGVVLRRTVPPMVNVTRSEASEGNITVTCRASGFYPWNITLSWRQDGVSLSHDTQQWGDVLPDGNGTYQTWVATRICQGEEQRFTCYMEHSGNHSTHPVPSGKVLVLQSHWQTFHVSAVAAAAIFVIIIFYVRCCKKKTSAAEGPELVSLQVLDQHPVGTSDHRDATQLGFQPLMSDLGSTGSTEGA
Assay: flow cytometry, CHO-MICA002 cells

B1: D2M001-004 (antibody, V domains shown)
VH: QVQLVQSGAEVKKPGSSVKVSCKASGYAFVDYLIEWVRQAPGQGLEWIGGVNPGSGSTNYAQKFQGRATLTADKSTSTAYMELSSLRSEDTAVYYCARLEGNYVGYWGQGTLVTVSS
VL: DIQMTQSPSSLSASVGDRVTITCRASGNIHNYLAWYQQKPGKSPKLLVYHAKTLQSGVPSRFSGSGSGTDYTLTISSLQPEDVATYYCQHFWSTPRTFGGGTKVEIK
notes: only the CDRs are tied to the name in the text; copies: 2 + 2
  EC50: 4.2 µg/mL

From patent US20250368742A1 (D2M BIOTHERAPEUTICS, published 2025)
